Source: the DeepSol protein solubility set

Assay: soluble on expression in E. coli; label from the status in PepcDB or PDB records

Soluble on expression in E. coli, not soluble:
MGSDKIHHHHHHMYVLAIDQSTSGTKAIIFDEKGGIVHRVTVYHKQYYPKPGWVEHDPEEIFRNTLDACRKVIEESGIKPLEIEALAITNQRETTILWEKKSGKPVYNAVVWQCQRGASLCEEIKKRGLEGKIKEKTGLVVDPYFSASKIRWILDNVEGVKNKAKQGEIAFGTVDSWLIWKLTKGEVHATDFSNASRTLLLNIHELRWDEEVLEIFEIPPEILPELKSSDSVFGYTDLGFLPKKIPIVGVMGDSSAALFGQGGFYSGDIKVTYGTGSSTMLNIGEKPNVSDSPIVCSVGWVVKETSSYVLEGNIHSAGDTIVWLKEKLGIISDPSETEKIALSLENNGGVYLVPAFVGLGAPYWRSDVKAAILGLQRNHGKEHVVRAALESIAYQVRDIFEEMVRISSKEPTEVRADGGITRNRFLMQFQADILNIPVLVSNIEEVSARGVAFVALLHLGAFSDLEEIRQKITYREKYEPRMGDELREMYYEGWKTAIRKLLTE
MGSDKIHHHHHHNEKQDWVGTWTASPQPTWGTDFALPVKMVPKLENQTIRQTVRTSVGGRRFRIVLSNEYSNVPIQIGEIRAARAGEDSKITAGTDRAVTFGGQAKATVPAGAPLVSDPVELPLDALSRLSISVYLPQPTPIATFHWDGKQTAYIGDGNQTASETIAAAQTTDARTLVSEILVDAPANNGAVIAIGDSITDGNGATLDADNRWPDVLAERLVSKQVSVLNAGISGARLLDDAMGVKASARFNRDVLAQPGVKAVILLIGINDISWPGTPFAPEKSLPSLAALTTGYLQLAAQAHAHNLIIVGGTLTPFEGALSGTPLDAYYTPEKEALRQKVNNWIRTSGAFDAVVDFDLLLRDPLHPTRLLPEFDSGDHLHPGDKGNRAMAEAIDLGQLIKN
MGSDKIHHHHHHQPAAGISDDMVKIGMLLDMSGLYADVTGRGSATAAQMAIDDFGGKVLGKKIELVVVDHQNKADIAANKAREWFDTGHVDAILDVAASAPALAVLDVAKQKNHIVVFSGPGSERITNDLCTPVSVHYAYDTYALANTTARAMVQRGGKTWFFLTADYAFGHTLQDSATAVINEAGGKVLGAARHPIGASDFASYLLQAQASKAQVVGLANAGGDTVNAIKAASEFGLTRNGAQRMAGLLLYINDIHAIGLKTASGLVLTEAFYWDMNDATRAWSRRYFEKVKKMPNMSQAGAYSSVMHYLKAVQAAGTDETAAVMKKMKSMPINDFFAKNGRIREDGRMIHDMYLFEVKSPAESKYPWDYYKVLATVPGDQAFMPASKSQCPLLKR
MGSDKIHHHHHHQPGATGGTWTCCPVSWRAFQSNCYFPLNDNQTWHESERNCSGMSSHLVTINTEAEQNFVTQLLDKRFSYFLGLADENVEGQWQWVDKTPFNPHTVFWEKGESNDFMEEDCVVLVHVHEKWVWNDFPCHFEVRRICKLPGITFNWKPSK
MGSDKIHHHHHHSCDGMDATYKEFIEEGPIVYIGKVDSLKAYAGRNRAMLEWQKLLDPRAKTAKIFWENRTRSTELQLTDKAGLTQVIVKDLAEGSYVFEVCTYDTHGNSSIMSEVPCTVYGDVYEKLLFNTKVKTAVLKNDVLTITFAASLEPTFFGSEITYTSIDGGDKTVILKAPETQIKIDDFAGDRIIYRSVYLPEETAIDYFYSESDEFEIK
MGSDKIHHHHHHSCDNDDDESIAVPTPLQEAFSTRYPNVKNVKWETKAGYYVADFYDGYEASAWFTTDGNWHMTETDIPYTALPDPVKSAFEASDYKTWKRDDVDKLERQGIETVYVIEVENQNQEVDLYYSADGVLIKSIADTDDHENEHLPTTQLPAVMKTFIDGKYAGARIVEVDVEDDKNDWDFGFTEVDIIHFDSGLNRNVSKEVLFDKGREWYSTSWEVRRNELPTAVTNAISTEYAGYQMDDAEYFEMATETSYYQIELEGNNSPDIDIKVTADGTILK
MGSDKIHHHHHHSCVNDLDTVPLDKDELVSDVVFGNEPLAYEQSLAKIYAGMAIGGNSGGDSDQDVVGIDGGSQASFLRVLWNMQDLPSDIAHCAWNDPGIPEFNHISWGASSPWIKGSYYRLFYQINVANAYLRETAEDKLDARGCDASLKASIKTWRAEARFLRALSYEYALDLYRNVPFVDENSPIGSIPPKQIMAADLFNWIEKELTECVEDMLEPTVGYSQDYGHANKAAAWALLSRLYLNAETYVGQNKYTECITYAKKVIETGYQLEPVYVDMFKADNHLSNEMIFPVRYEGDQTMTWGGMTAFLCWGATATQEEVNAKGAWQGVRAKSSLYNLFLKESGSDADTRKAMLRTDLTTSLEIIDENTFQNNGIPVTKYFNVNKDGTLPPSKEAYVDFPLFRLGEIYLTYAEAVLRGGQGGDRATALRYVNDLRKRAYSDKTLAPISDSDLTLNFIIDERGREFFFEGQRRTDLVRFGLFTTAGYVWPWKGGTAKGKAVENFYNVFPIPSDDIGSNTNLKQNEGY
MGSDKIHHHHHHSDQYSTETFWKTKEHASAGIMGCYNALKLWRSLHTMEFDMLTANAMPYNEANGTQAIGKGEHLSTTALIGSLWKNCYVGIGRTNTFIANVGGVDMDESEKAKMVGEAKFLRAFYYLSLVDKFGGVPLIIDAPNADEQAELPRNSKEEVVNQIVKDLEEAAAVLPDTYASSDLGRATKGAALALKARTLLYNSRWAEAAQAAKQVMESGVYQLFNDYRHFFSEDNKYNCEVIFDIEAKLPEYPTDYDQNIWRLNRPAPLKELVDTYLCVDGKTIEESPLYDPTRPYENRDPRLLKSIVCIGYPYLGKTITKEDVATTGFGVKKYTSYEDDVTIPLVERSAFNFILIRYAEVLLTYAEAQNEASGPDQSVYDAINQLRRRPDINMPEVPKGLTKDQMREVIRRERRIELTFEGLYYSDILRWKTAEKENNGMMHNYEGIEVVKRSFNPKRDYLWPIPYNQTVLNPNLEQNPNWD
MGSDKIHHHHHHSDVVDLEPVDKFSELTAYGTEERCELAVVGAYDAAQCGMYVDPNDFGWARGYPFGAASILQGEMRGEDMNLTAQFYDYTYSATYNLTTANNVAMWETSFEAINRYNTVYAGIEGAVAAGVITEEKGNQYKGECLFLRALTYHNLMIHYALPYNVEGNNNYGMPIYTKAVNDPSQLAEQQSIGRSTVKDTYDQILSDLNNAESMLPDIIDADKIGRASKGAAIALKTRVYLHMRDWNNVVTEAKKLEGGRFILETNPATPFVSYKDNQESIFSIPNDSQDNGSVNGAMSAMMSAREGGRAMCPTSPTLYNSKFWKGDDKRRNLVLYRASDDYYFCDKYQNPQTREEYAPILRYAEVLLNEAEAAARAGDKTLALEKLNQVRDRSLADPATQTYKASDFANTKALVEAILWERRIEFQGEGRRWEDIHRLAADDLLPSGGIPAKIEYNNVKNQGAFVVGGEVKAEWFGNSKQFIPYTDKRFIWPIPLNDILRNPTLAAQQNAGW
MGSDKIHHHHHHSQERTLFPTEKTDRVPLSVFTSFKADVTTRATAQPLPEGSSIGVFLIADANYTPQSNVKYTCQPDDEWTSETSVWVGGARAGLCAYYPFGKVTFSADIQTQTTLKNQAYTEDADWWYAKDNAAVTVTNLSPEIEFLLEKPYSQLSLEMIRNGRYPLQCKITNVRIELENGESMVDTGTFDIKDGSLQNTTDVTSYSYPTSGPMHDTGLGVGEAARDTTCNYLFVPQILASGLKLTLTIDEREFSVIVPQADLGELIAGKRHVVRLDIRGGIPINIVEVTTKEWQSTSLDGGDATTIKDTTEIIIDGGKVGTEDWASDPTENGSGAL
MGSDKIHHHHHHSQGKQISGSSNYITKNIKVGSFDQIKSMSSSDIVYTQKQGAPTVQIYGPDNIVELMETSVSGRTLTIKFKKNTSIRNSGKLEIRVSSPSLKHLSIYGSGNTTFTNGIKSHDELQMSIYGSGNISGNSFSCTKLAARIYGSGNVNLKRISTSDTQVNISGSGNVLLDGKSTEAEYHIAGSGDINATELKVENVNARISGSGSIRCYATENLTGGVSGSGNVAYKGNPQINFSKRGLQKL
MGSDKIHHHHHHSRSTQGVRSLGFYNRHTGERGQGSYWIDGDYQTNTLNDFNHLLRDHRQNETAPMDKRLFDLLFSLKQTLQVDEDFHVISGYRSPKTNQMLANRSSAVAKKSYHMKGMAMDIALPDVNLKDLRDAAISLKLGGVGYYPSSGFVHVDTGPIRTW
MGSDKIHHHHHHSSSDLKDLLRERIAAKYTIDDLKDTGKKIRKTAPIESLAAVSKIDRDPVQFINSVEQNLTKSLLPMRHSRMGASQAAFFRGTAELMAYDLQQGEKSGINLLIDGDAHLQNFGFYASPERNLLFDLNDFDEAQINSFEFDIKRLLTSVYLLGDQQGFDADKLDELVQTDASIYRKTLRDLFKVGALDRFYQSTEVNHLVQSIPGAEDSALLSKFVKKATKRNNDSVIKKYTTTIDGNMRFKDDPPSSVRLDKATYQAIFDGFTQYRKSTRPDILVLLSEYRITDIIHHSVGIGSFGTNCYLVLLSGLGGSHLVLQVKEALPPRPELIPNTERITLQQEVSQGQRIIASQMILQKASDPFLGWFNVGDKSYYVRQFRDMKGSVDLEELTFPEFQYYTQITTYLLAMAHAQTPQAAVVTGYLDKSFDSAVQRWSKWYLNQVKADYSAFMRAVQTHMLA
MGSDKIHHHHHHSTVAIALDCKGLGSPIPGTAPLCKDLTLMATGNKPSAAFVKNTRAAYGSVLQGYHNQVKPHVAPVQAAVSKKWKQFAKSDVGGKVEKIAMNIHAWIVDKWVKIQRFVQQTWNNVAAWWKKNGQKQFGPALEGFVLGVKMVFQVVADALRSVGALLVHFFARAKTFFVAFADGGFNAAMNTLNH
MGSDKIHHHHHHTKKEISTQPIKVGVFDGHGGAQTCIWETVAAIRLDPEMEVRTITTADIANNALDSIDAIIIPGGSGKSQYLNLGTLNQQRIKDFIAKGKGAVGICAGAYLFSNTPDYTCIQLNGQQAIDIEHDNRGHGLAKFTLCEEGKKIFPELADRDTSFVIYYEGPVFINNPVDTIQSNTLAIMESDVHEEGNAPANMTNGKPFFVANNYGKGRVFSSIAHPEGTPGMMWMIPRMVRWTLNKPFIPYQSSAVRPDLFNHESLMATDDLKQEEKAFQILLSGESEQKVAALDWLEAHHSWDAKRWVQGLLYDASPAVRIRAARYIADTHYLPFLPNLQAAYRTETDKATQEELKTQLEKLTALLP
MGSDKIHHHHHHVELHQLKDLLTEKLQATSLIHATISAPRLKSNDLRRIKVKPILLRDTYAIQLEFQHERIIKHENLSIEEFIVRMDQFFDEFRQFLFRFETEEVQFQLSKKMKVSIKTTVKEPIQAELSHNRKKSHLLEDGVPVPFLIRLGVMTEEGQVKRQKYDKFKQINRFLEFVEDSIAVLPKGRTLRILDFGCGKSYLTFALYHYLKIVKGFDLNVTGLDLKKEVIEECAAIAADLGYDDLSFRVGDVHDYDQDTEVDLMVTLHACDVATDVALARAVDWNASVILSVPCCQKELNRQLDCSPLDVMLQHGLIQEKFASLATDSIRAELLTLVGYETQLLEFIDLENTPKNILIRAYKNPKRPTEEKIDRYIAFRELLHAKPYLERELSGRLGQISSKLVQ
MGSDKIHHHHHHVEMPGTTEPLGKMVKVEGKKDEHKGDFFLTTVQIARANLATMIYSHFNSFTSIYSEQEMTGGLNDAQFNRVNQFYMETAQNTAIYQAFKLANKPYELKYEGVYVLDIAKNSTFKNKLELADTITAVNGQQFTSSADMIAYVSKQKVGDSVTIEYTRIDGTKHKSTGKYIKIANGKTGIGISLVDHTEVVTTPKVTVNAGSIGGPSAGMMFTLEIYSQLTGKDLRNGREIAGTGTIEHDGSIGQIGGVDKKVATASKEGAKVFLVPDSGTKKESSNNYLGAKTAAKKLKTKMKIVPVKTIQDALDYLEK
MGSDKIHHHHHHVEYPLPAKNSNLVGENQYYVVPEGKLTLEAIATKFQLGLTNLLEANPGVDPFLPKPGSTLVIPHQLILPNAPREGIVINVAEMRLYYYPKGKNIVEVLPIGIGQIGKDTPEKWVTTVQRKRANPTWTPTPRIRKEYLAKGEVLPAVWPAGPDNPMGLFALYIGNLYAIHGTNATFGIGLRISQGCIRLRDADIEHLFNSVPEGTRVEFTNQPIKASEEPDGNRYLEVHQPLSRTMAEYESAEPVGLSMHRDIAKFVAHADTDSFVLKRLLEQRNGIPTRINQ
